The assay deals with T1, Arabidopsis CRY1 expressed in transgenic Arabidopsis (GFP-CRY1 and Myc-CRY1) (Arabidopsis), Q43125.
T1 chain: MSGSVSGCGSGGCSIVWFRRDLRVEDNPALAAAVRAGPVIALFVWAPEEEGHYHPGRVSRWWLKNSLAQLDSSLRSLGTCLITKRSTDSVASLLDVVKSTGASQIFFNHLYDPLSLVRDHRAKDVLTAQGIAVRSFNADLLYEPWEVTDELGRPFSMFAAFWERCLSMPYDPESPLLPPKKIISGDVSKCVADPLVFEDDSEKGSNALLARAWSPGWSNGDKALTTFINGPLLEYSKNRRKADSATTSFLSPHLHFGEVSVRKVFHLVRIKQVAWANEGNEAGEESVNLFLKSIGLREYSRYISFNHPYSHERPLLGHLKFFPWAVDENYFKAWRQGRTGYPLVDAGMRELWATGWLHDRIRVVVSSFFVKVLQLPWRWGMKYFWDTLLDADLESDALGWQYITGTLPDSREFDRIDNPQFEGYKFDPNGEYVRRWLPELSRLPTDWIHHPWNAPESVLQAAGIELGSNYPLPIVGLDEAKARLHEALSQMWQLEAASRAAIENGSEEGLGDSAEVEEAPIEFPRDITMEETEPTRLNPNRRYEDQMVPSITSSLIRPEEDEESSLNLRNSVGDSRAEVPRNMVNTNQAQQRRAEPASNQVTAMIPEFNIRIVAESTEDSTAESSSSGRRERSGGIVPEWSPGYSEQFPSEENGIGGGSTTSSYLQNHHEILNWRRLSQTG
In words: co-IP. The following applies: remark: other sources report otherwise.

Several values for one entry are separate records, joined by “and”; a condition that tells them apart may be missing. Equal values may be shown once.

B1: Arabidopsis CRY1 expressed in transgenic Arabidopsis (GFP-CRY1 and Myc-CRY1), Q43125 1-681 (natural protein)
chain: T1 chain
For the molecule B1, the 60F50 (fluence rate of blue light for 50% photooligomerization after 60 seconds) is 14.9 μmolm^−2s^−1 and 16.2 μmolm^−2s^−1.

Source of the values: paper PMC7056577.
